Biological target: EvdS6 (Micromonospora carbonacea var. aurantiaca)
Assay: crystal structure; EvdS6 with copurified NAD+, ligand-free and TDP-bound states; hanging drop at about 25 °C; two protein chains in the asymmetric unit

stoichiometry N: 2
Substance: EvdS6 (enzyme)
